Legend:
[1] = target: T1, Alcaligenes faecalis Penicillin G acylase, wild type (α subunit SEQ ID NO:27, β subunit SEQ ID NO:32) (Alcaligenes faecalis, UniProt O34142); assay: Deacylation kinetics and phenylacetic acid product inhibition, wild type PenG acylase; type: biochemical; settings: Table 8, wt AF; NIPAB, 0.1 M NaH2PO4, pH 7.5, 25° C.
T1 construct: alpha 202 aa, beta 551 aa; likely recombinant, E. coli host
T1 sequence (O34142 27-228): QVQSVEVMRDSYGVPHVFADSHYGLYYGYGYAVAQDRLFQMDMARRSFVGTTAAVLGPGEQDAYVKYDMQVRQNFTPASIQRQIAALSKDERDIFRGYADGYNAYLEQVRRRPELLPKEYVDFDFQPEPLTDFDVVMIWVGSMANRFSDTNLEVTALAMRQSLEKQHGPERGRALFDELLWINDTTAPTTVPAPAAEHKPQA
T1 sequence (O34142 266-816): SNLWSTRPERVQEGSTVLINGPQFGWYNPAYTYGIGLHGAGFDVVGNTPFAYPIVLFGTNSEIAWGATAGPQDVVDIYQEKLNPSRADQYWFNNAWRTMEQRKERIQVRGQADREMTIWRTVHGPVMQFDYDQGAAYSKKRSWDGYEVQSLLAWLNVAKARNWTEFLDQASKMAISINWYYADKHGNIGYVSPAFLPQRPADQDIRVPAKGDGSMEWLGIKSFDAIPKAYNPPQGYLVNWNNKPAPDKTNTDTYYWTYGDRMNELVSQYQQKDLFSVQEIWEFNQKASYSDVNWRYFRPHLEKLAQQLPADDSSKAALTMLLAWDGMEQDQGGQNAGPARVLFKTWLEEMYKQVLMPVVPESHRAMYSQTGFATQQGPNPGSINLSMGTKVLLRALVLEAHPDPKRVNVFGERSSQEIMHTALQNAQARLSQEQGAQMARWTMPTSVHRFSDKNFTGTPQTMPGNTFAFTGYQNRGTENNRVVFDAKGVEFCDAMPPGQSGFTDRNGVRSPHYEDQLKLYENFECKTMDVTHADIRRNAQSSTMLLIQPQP
Experimental: In order to determine enzymatic activity the acylases were incubated with substrate at room temperature in buffered solution. In case β-lactamase impurity was expected to be present in the enzyme preparations, 1.0 mM -lactamase inhibitor 6-bromo-penicillanic acid was added to the assay. The reactions were stopped by adding an excess PMSF. For some mutants which were less sensitive to PMSF inhibition, the reactions were stopped by adding 0.5 M HCl or 0.5 M acetic acid until the pH was between 3 and 4. When reactions were subsequently analysed by HPLC, the reactions were stopped by dilution with the correponding elution solvent (see table 1). […]
(§1) The composition of the reaction mixtures was determined by high-performanceliquid chromatography (HPLC)(table 1). Concentrations were determined by using standards of known concentration.
In a continuous assay Penicillin G acylase was assayed spectro-fotometrically with the chromogenic substrate NIPAB [6-nitro-3-phenylacetamido-benzoic acid]. The liberation of 3-amino-6-nitrobenzoic acid was monitored by measuring the extinction at 405 nm in a Kontron 610 kinetic spectrofotometer. […]
Initial rate measurements were performed with excess substrate over the enzyme. Catalytic parameters were derived from least-squares fitting of the measured initial rates plotted for various substrate concentrations according to the Michaelis-Menten equation. […]

[2] = substrate: CC1=C(C(=O)O)N2C(=O)[C@@H](NC(=O)Cc3ccccc3)[C@H]2SC1; assay: Deacylation kinetics, mutant A:F147Y; type: biochemical, Alcaligenes faecalis; settings: other: A:F147Y; 20 mM NaH2PO4, pH 7.5, 37° C.; pH 7.5; 37.0 °C
Experimental: (§2) In case β-lactamase impurity was expected to be present in the enzyme preparations, 1.0 mM -lactamase inhibitor 6-bromo-penicillanic acid was added to the assay. The reactions were stopped by adding an excess PMSF. For some mutants which were less sensitive to PMSF inhibition, the reactions were stopped by adding 0.5 M HCl or 0.5 M acetic acid until the pH was between 3 and 4. When reactions were subsequently analysed by HPLC, the reactions were stopped by dilution with the correponding elution solvent (see table 1). In addition substrates were incubated under assay conditions in absence of enzyme. If necessary enzyme assays were corrected for non-enzymatic hydrolysis
as §1
(§3) In a continuous assay Penicillin G acylase was assayed spectro-fotometrically with the chromogenic substrate NIPAB [6-nitro-3-phenylacetamido-benzoic acid]. The liberation of 3-amino-6-nitrobenzoic acid was monitored by measuring the extinction at 405 nm in a Kontron 610 kinetic spectrofotometer. […] Initial rate measurements were performed with varying concentration of NIPAB.
(§4) The kinetics of enzymatic hydrolysis of PenG, PenV, CefG were also studied by alkaline titration (0, OlM KOH), using a Radiometer pH-stat. All experiments were carried out in a buffer free medium.
(§5) Initial rate measurements were performed with excess substrate over the enzyme. Catalytic parameters were derived from least-squares fitting of the measured initial rates plotted for various substrate concentrations according to the Michaelis-Menten equation.

[3] = substrate: CC1(C)S[C@@H]2[C@H](NC(=O)[C@H](N)c3ccc(O)cc3)C(=O)N2[C@H]1C(=O)O; assay: Deacylation kinetics, mutant A:F147Y; type: biochemical, Alcaligenes faecalis; settings: other: A:F147Y; 20 mM NaH2PO4, pH 7.0, 37° C.; pH 7.0; 37.0 °C
Experimental: as §2, §1, §3, §4, §5

[4] = substrate: NC(=O)[C@H](N)c1ccccc1; assay: Deacylation kinetics, mutant A:F147Y; type: biochemical, Alcaligenes faecalis; settings: other: A:F147Y; 20 mM NaH2PO4, pH 7.0, 37° C.; pH 7.0; 37.0 °C
Experimental: as §2, §1, §3, §4, §5

[5] = substrate: O=C(Cc1ccccc1)Nc1ccc([N+](=O)[O-])c(C(=O)O)c1; assay: Deacylation kinetics, mutant A:F147Y; type: biochemical, Alcaligenes faecalis; settings: other: A:F147Y; 0.1M NaH2PO4, pH 7.5, 25° C.; pH 7.5; 25.0 °C
Experimental: as §2, §1, §3, §4, §5

[6] = substrate: CC1(C)S[C@@H]2[C@H](NC(=O)Cc3ccccc3)C(=O)N2[C@H]1C(=O)O; assay: Deacylation kinetics, mutant A:F147Y; type: biochemical, Alcaligenes faecalis; settings: other: A:F147Y; 40 mM NaH2PO4, pH 7.5, 37° C.; pH 7.5; 37.0 °C
Experimental: as §2, §1, §3, §4, §5

[7] = substrate: CC1(C)S[C@@H]2[C@H](NC(=O)COc3ccccc3)C(=O)N2[C@H]1C(=O)O; assay: Deacylation kinetics, mutant A:F147Y; type: biochemical, Alcaligenes faecalis; settings: other: A:F147Y; 40 mM NaH2PO4, pH 7.5, 37° C.; pH 7.5; 37.0 °C
Experimental: as §2, §1, §3, §4, §5

[8] = substrate: CC1(C)S[C@@H]2[C@H](NC(=O)[C@H](N)c3ccccc3)C(=O)N2[C@H]1C(=O)O; assay: Deacylation kinetics, mutant A:F147Y; type: biochemical, Alcaligenes faecalis; settings: other: A:F147Y; 20 mM NaH2PO4, pH 7.0, 37° C.; pH 7.0; 37.0 °C
Experimental: as §2, §1, §3, §4, §5

O=C(Cc1ccccc1)Nc1ccc([N+](=O)[O-])c(C(=O)O)c1 [NIPAB, 6-nitro-3-phenylacetamido-benzoic acid]
Vmax [1]: 37.0 U/mg

B1: Alcaligenes faecalis Penicillin G acylase mutant A:F147Y (Alcaligenes faecalis; F173Y) (protein)
chain 1: QVQSVEVMRDSYGVPHVFADSHYGLYYGYGYAVAQDRLFQMDMARRSFVGTTAAVLGPGEQDAYVKYDMQVRQNFTPASIQRQIAALSKDERDIFRGYADGYNAYLEQVRRRPELLPKEYVDFDFQPEPLTDFDVVMIWVGSMANRYSDTNLEVTALAMRQSLEKQHGPERGRALFDELLWINDTTAPTTVPAPAAEHKPQA
chain 2: SNLWSTRPERVQEGSTVLINGPQFGWYNPAYTYGIGLHGAGFDVVGNTPFAYPIVLFGTNSEIAWGATAGPQDVVDIYQEKLNPSRADQYWFNNAWRTMEQRKERIQVRGQADREMTIWRTVHGPVMQFDYDQGAAYSKKRSWDGYEVQSLLAWLNVAKARNWTEFLDQASKMAISINWYYADKHGNIGYVSPAFLPQRPADQDIRVPAKGDGSMEWLGIKSFDAIPKAYNPPQGYLVNWNNKPAPDKTNTDTYYWTYGDRMNELVSQYQQKDLFSVQEIWEFNQKASYSDVNWRYFRPHLEKLAQQLPADDSSKAALTMLLAWDGMEQDQGGQNAGPARVLFKTWLEEMYKQVLMPVVPESHRAMYSQTGFATQQGPNPGSINLSMGTKVLLRALVLEAHPDPKRVNVFGERSSQEIMHTALQNAQARLSQEQGAQMARWTMPTSVHRFSDKNFTGTPQTMPGNTFAFTGYQNRGTENNRVVFDAKGVEFCDAMPPGQSGFTDRNGVRSPHYEDQLKLYENFECKTMDVTHADIRRNAQSSTMLLIQPQP
notes: alpha 202 aa, beta 551 aa; recombinant, E. coli host
Km [2]: 6 µM
Vmax [2]: 4.0 U/mg
Km [3]: 19000 µM
Vmax [3]: 0.1 U/mg
Km [4]: 1700 µM
Vmax [4]: 32.7 U/mg
Km [5]: 5 µM
Vmax [5]: 18.0 U/mg
Km [6]: 4 µM
Vmax [6]: 5.9 U/mg
Km [7]: 51 µM
Vmax [7]: 0.8 U/mg
Km [8]: 2600 µM
Vmax [8]: 13.6 U/mg
